Experimental data as given in patent US20260374739A1, “SMALL MOLECULAR WEIGHT CHEMICAL COMPOUND TO ANTAGONIZE EPH-EPHRIN TETRAMERIZATION AND INHIBIT BIDIRECTIONAL SIGNALING” (THE BOARD OF REGENTS OF THE UNIVERSITY OF TEXAS SYSTEM, priority 2022, published 2026).
Where two headings read alike, the source gives them in different places.

T1: EphB1-EphrinB2 (EB2) (Rattus norvegicus, UniProt P09759)
T1 construct: rat EphB1-Fc residues 18-538; mouse EB2-His residues 18-232; purchased R&D Systems (EphB1-Fc); Sino Biologicals (EB2-His)
T1 sequence (P09759 18-538): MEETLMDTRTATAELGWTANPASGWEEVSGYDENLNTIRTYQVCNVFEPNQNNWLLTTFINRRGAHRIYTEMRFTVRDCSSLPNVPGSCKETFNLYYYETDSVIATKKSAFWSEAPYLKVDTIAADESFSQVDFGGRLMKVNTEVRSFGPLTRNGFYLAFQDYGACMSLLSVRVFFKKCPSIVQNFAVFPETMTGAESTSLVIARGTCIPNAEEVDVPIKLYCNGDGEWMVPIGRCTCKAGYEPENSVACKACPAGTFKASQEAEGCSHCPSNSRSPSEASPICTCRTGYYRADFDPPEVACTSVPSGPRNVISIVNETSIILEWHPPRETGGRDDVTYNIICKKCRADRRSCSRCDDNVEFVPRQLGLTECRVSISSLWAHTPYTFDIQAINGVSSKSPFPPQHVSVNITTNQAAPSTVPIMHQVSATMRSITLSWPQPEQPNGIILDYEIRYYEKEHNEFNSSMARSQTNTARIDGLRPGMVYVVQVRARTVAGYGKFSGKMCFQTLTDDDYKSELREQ

B1: EphB2: soluble human EphB2-His ectodomain (protein, UniProt P29323 19-543, looked up)
extracellular domain: VEETLMDSTTATAELGWMVHPPSGWEEVSGYDENMNTIRTYQVCNVFESSQNNWLRTKFIRRRGAHRIHVEMKFSVRDCSSIPSVPGSCKETFNLYYYEADFDSATKTFPNWMENPWVKVDTIAADESFSQVDLGGRVMKINTEVRSFGPVSRSGFYLAFQDYGGCMSLIAVRVFYRKCPRIIQNGAIFQETLSGAESTSLVAARGSCIANAEEVDVPIKLYCNGDGEWLVPIGRCMCKAGFEAVENGTVCRGCPSGTFKANQGDEACTHCPINSRTTSEGATNCVCRNGYYRADLDPLDMPCTTIPSAPQAVISSVNETSLMLEWTPPRDSGGREDLVYNIICKSCGSGRGACTRCGDNVQYAPRQLGLTEPRIYISDLLAHTQYTFEIQAVNGVTDQSPFSPQFASVNITTNQAAPSAVSIMHQVSRTVDSITLSWSQPDQPNGVILDYELQYYEKELSEYNATAIKSPTNTVTVQGLKAGAIYVFQVRARTVAGYGRYSGKMYFQTMTEAEYQTSIQEKLPL
modifications: extracellular domain His tag
notes: soluble human EphB2-His ectodomain
B2: EphB4: soluble human EphB4-His ectodomain (protein, UniProt P54760 16-539, looked up)
extracellular domain: LEETLLNTKLETADLKWVTFPQVDGQWEELSGLDEEQHSVRTYEVCDVQRAPGQAHWLRTGWVPRRGAVHVYATLRFTMLECLSLPRAGRSCKETFTVFYYESDADTATALTPAWMENPYIKVDTVAAEHLTRKRPGAEATGKVNVKTLRLGPLSKAGFYLAFQDQGACMALLSLHLFYKKCAQLTVNLTRFPETVPRELVVPVAGSCVVDAVPAPGPSPSLYCREDGQWAEQPVTGCSCAPGFEAAEGNTKCRACAQGTFKPLSGEGSCQPCPANSHSNTIGSAVCQCRVGYFRARTDPRGAPCTTPPSAPRSVVSRLNGSSLHLEWSAPLESGGREDLTYALRCRECRPGGSCAPCGGDLTFDPGPRDLVEPWVVVRGLRPDFTYTFEVTALNGVSSLATGPVPFEPVNVTTDREVPPAVSDIRVTRSSPSSLSLAWAVPRAPSGAVLDYEVKYHEKGAEGPSSVRFLKTSENRAELRGLKRGASYLVQVRARSEAGYGPFGQEHHSQTQLDESEGWREQLA
modifications: extracellular domain His tag
notes: soluble human EphB4-His ectodomain
B3: EphB1: soluble human EphB1-His ectodomain (protein, UniProt P54762 18-540, looked up)
extracellular domain: MEETLMDTRTATAELGWTANPASGWEEVSGYDENLNTIRTYQVCNVFEPNQNNWLLTTFINRRGAHRIYTEMRFTVRDCSSLPNVPGSCKETFNLYYYETDSVIATKKSAFWSEAPYLKVDTIAADESFSQVDFGGRLMKVNTEVRSFGPLTRNGFYLAFQDYGACMSLLSVRVFFKKCPSIVQNFAVFPETMTGAESTSLVIARGTCIPNAEEVDVPIKLYCNGDGEWMVPIGRCTCKPGYEPENSVACKACPAGTFKASQEAEGCSHCPSNSRSPAEASPICTCRTGYYRADFDPPEVACTSVPSGPRNVISIVNETSIILEWHPPRETGGRDDVTYNIICKKCRADRRSCSRCDDNVEFVPRQLGLTECRVSISSLWAHTPYTFDIQAINGVSSKSPFPPQHVSVNITTNQAAPSTVPIMHQVSATMRSITLSWPQPEQPNGIILDYEIRYYEKEHNEFNSSMARSQTNTARIDGLRPGMVYVVQVRARTVAGYGKFSGKMCFQTLTDDDYKSELREQLP
modifications: extracellular domain His tag
notes: soluble human EphB1-His ectodomain

Key:
EphB1-EphrinB2 (EB2) = biological target: T1, EphB1-EphrinB2 (EB2); assay: Alpha assay EphB1-EphrinB2 (EB2) interaction; assay type: binding, mouse EB2
From the text: A chemiluminescent AlphaScreen™ bead-based proximity assay suitable for HTS was developed to measure the receptor-ligand interaction formed between EphB1 and EphrinB2 (EB2) ectodomains (FIG. 3). Here, when singlet oxygen molecules generated by high energy irradiation of donor beads travel over a constrained distance to excite acceptor beads, a chemiluminescent signal is generated and detected. If an analyte interferes with the EphB1-EB2 protein-protein interaction, close proximity of the donor and acceptor beads will be disrupted resulting in diminished or lost energy transfer and reduced acceptor bead emission.
Test was conducted in the Alpha assay, to see if purified soluble Reelin (previously shown to bind EphB1 ectodomain) can interfere with EphB1-EB2 binding.
The EphB1-EB2 screen was conducted using 0.8 nM of each protein, 50 ng beads per well, and assessed at 5 μM a library of −240,000 small, drug-like chemicals. […] They were also tested in a counter screen designed to identify non-specific compounds. Here, a single-protein Alpha assay was set up using a dual-tagged EphB2-His-Fc ectodomain protein that can bind both donor and acceptor beads to bring them into proximity. If a selected compound simply absorbs the chemiluminescent signal or interferes with bead function/binding or protein folding, it was hypothesized that it would also reduce signals in the single protein assay, and would consider it a false positive.

human EphrinB1 = assay: Octet binding kinetics, EphB to immobilized human EphrinB1
Method: (§1) Studies were conducted to confirm that A20 chemicals can effectively target the human Eph/Ephrin proteins. Octet system was used to first characterize the biophysical interactions of the human B class Eph and Ephrin proteins, and then was tested to assess how A20 may disrupt the interactions. Since the human and rodent proteins are highly conserved, and essentially identical, with EphB2 sharing 99.5% identity between human and mouse, with only 5 of ~1,000 amino acids different, any species-specific differences were not anticipated. Therefore, commercially available human EphrinB1-Fc (EB1), EphrinB2-Fc (EB2), and EphrinB3-Fc (EB3) ectodomain proteins were sparsely immobilized onto biosensors and then exposed to 50 nM of soluble human EphB1-His, EphB2-His, and EphB4-His ectodomains for 800 sec association and 1,000 sec dissociation steps with a total of nine different interactions analyzed. In the absence of A20 chemical, the immobilized human EphrinB proteins bound to their appropriate human EphB target proteins; with EphrinB1 only bound EphB1 and EphB2, EphrinB2 bound all three EphB1, EphB2, and EphB4, and EphrinB3 only bound EphB1 and EphB2 (FIG. 19A-19B).
(§2) While the binding kinetics described above for the various human EphB-EphrinB interactions are complicated and show clear differences, all are extremely high affinity interactions with KD values in the low nanomolar to picomolar range (Table 2). Octet software allows for detailed biophysical analysis of the sensorgram data and first attempts to fit the information to equations that follow rather standard binding characteristics, most typified by either a classic 1:1 binding type interaction (like formation of a simple receptor-ligand dimer) or something more complex/heterologous involving 2:1 binding type interactions (like Eph-Ephrin dimer and tetramer). Based on the information contained in the sensorgram run under analysis, the Octet software will attempt to draw curves to fit the data to 1:1 and 2:1 binding equations. […] The resulting curve fits are not always perfect, especially for such complex interactions as the Eph/Ephrin system. As such, while the EphB2-EB2 and EphB4-EB2 data fit a 2:1 curve fairly well, the EphB1-EB2 interaction fits neither 1:1 or 2:1 well and the R2 values of this interaction reflects this. The interaction of EB1 with its two target proteins is more divergent. […] The EphB1-EB3 and EphB2-EB3 interactions are like that for EphB1-EB1, clear 1:1 curve fits with a slow gradual on rate of association followed by no off rate in dissociation.

human EphrinB2 = assay: Octet binding kinetics, EphB to immobilized human EphrinB2
Method: as §1, §2

human EphrinB3 = assay: Octet binding kinetics, EphB to immobilized human EphrinB3; conditions: for Kd: 2:1 fit
Method: as §1, §2

[1] = 2:1 fit, in parentheses R2 value, read-out: KD2
[2] = in parentheses R2 value, read-out: KD
[3] = in parentheses R2 value, read-out: KD2

Row | Molecule | antagonism of EphB1-EB2 (EphB1-EphrinB2 (EB2)) | Kd (human EphrinB1; [1]) | Kd (human EphrinB1; 2:1 fit, read-out: KD1) | Kd (human EphrinB1; [2]) | Kd (human EphrinB2; [1]) | Kd (human EphrinB2; 2:1 fit, read-out: KD1) | Kd (human EphrinB2; [2]) | Kd (human EphrinB3; [3]) | Kd (human EphrinB3; read-out: KD1) | KD (binding in words) (human EphrinB1) | KD (binding in words) (human EphrinB3)
1 | CC1CCN(Cc2cc(Br)c(O)c3ncccc23)CC1 [Compound 66, 7-bromo-5-((4-methylpiperidin-1-yl)methyl)quinolin-8-ol, reference compound] | did not pass through the Alpha confirmation and counter screens |  |  |  |  |  |  |  |  |  | 
2 | Reelin: purified soluble Reelin (previously shown to bind EphB1 ectodomain) | almost complete inhibition at 200 nM |  |  |  |  |  |  |  |  |  | 
3 | B1 |  | 40 nM | 41 nM | 8.57 nM | 16.8 nM | 5.9 nM | 4.84 nM | 0.0018 nM | 0.0018 nM |  | 
4 | B2 |  |  |  |  | 42 nM | 0.35 nM | 1.8 nM |  |  | no binding | no binding
5 | B3 |  |  |  |  | 27 nM | < 0.001 nM | 4.3 nM | 0.0012 nM | 0.0014 nM |  | 
